Key:
金黄色葡萄球菌肠毒素B (SEB) [1] = target: T1, 金黄色葡萄球菌肠毒素B (SEB) (Staphylococcus aureus (ATCC BAA-1556), UniProt P01552 28-266)
金黄色葡萄球菌肠毒素B (SEB) [2] = target: T1, 金黄色葡萄球菌肠毒素B (SEB); experiment: ELISA, antigen coated

T1 sequence (P01552 28-266, tags left off): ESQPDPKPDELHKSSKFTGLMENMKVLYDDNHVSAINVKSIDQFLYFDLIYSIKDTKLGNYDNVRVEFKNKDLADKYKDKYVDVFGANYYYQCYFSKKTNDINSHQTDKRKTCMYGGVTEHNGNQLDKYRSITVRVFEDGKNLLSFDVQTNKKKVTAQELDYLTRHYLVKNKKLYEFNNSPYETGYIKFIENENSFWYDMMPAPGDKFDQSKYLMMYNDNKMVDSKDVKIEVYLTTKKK

B1: 全人源SEB单克隆抗体M0313 (antibody, V domains shown)
VH: EVQLVQSGGGLVQPGGSLRLSCAASGFTLSNYGMSWVRQSPGKGLEWVSGISGGSGSTCYADFVKGRFTISRDKSKNTLSLEMNSLRAEDRAVYYCAKDREYYNSGYYYFPYQYAMDVWGQGTTVTVSS
VL: QSVLTQPPSASGTPGQRVTISCSGGRPNIGGNSVYWYQQFPGTSPKLLIYTNDQRPSGVPDRFSGSKSGTSASLAISGLRSEDEADYYCAAWDDSLSAYVFGAGTKVTVL
B1 gave a Kd (金黄色葡萄球菌肠毒素B (SEB) [1]) of 3.22 nM, a koff (金黄色葡萄球菌肠毒素B (SEB) [1]) of 0.00292 s⁻¹ and a kon (金黄色葡萄球菌肠毒素B (SEB) [1]) of 908000 M⁻¹ s⁻¹. It also gave an EC50 (金黄色葡萄球菌肠毒素B (SEB) [2]) of 7.3 ng/mL.
